Assay results reported in the supplement of paper PMC9112550, “Optimization of the antimicrobial peptide Bac7 by deep mutational scanning” (BMC Biology, 2022).

tested on: Escherichia coli TOP10; test: shrunken log2 fold change of peptide-encoding DNA abundance (4.5 h post-induction vs induction); higher = less antimicrobial activity (less host growth inhibition); details: time post-induction: 4.5 h; library: site-saturation at positions 5, 18, 19, 20
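Also: peptides expressed intracellularly from a pBAD plasmid library in pooled LB shake-flask culture, induced with 0.3% L-arabinose, DNA abundance read by NGS, three biological replicates, DESeq2 with apeglm shrinkage.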

Point of comparison: RRIRERPPRLPRPRPRPTTHPRP, “shrunken log2 fold change” value -0.294. Against it:
- RRIRHRPPRLPRPRPRPHFWPRP — higher, -0.0607
- RRIRQRPPRLPRPRPRPSFWPRP — higher, 0.0712
- RRIRPRPPRLPRPRPRPYCFPRP — lower, -0.655
- RRIRYRPPRLPRPRPRPRSIPRP — within 0.2 log units, -0.276
- RRIRSRPPRLPRPRPRPSFDPRP — within 0.2 log units, -0.264
- RRIRVRPPRLPRPRPRPKATPRP — higher, 0.266
- RRIRNRPPRLPRPRPRPMGVPRP — higher, 0.165
- RRIRARPPRLPRPRPRPMEQPRP — higher, 0.0309
- RRIRQRPPRLPRPRPRPCMTPRP — higher, 0.0109
- RRIRTRPPRLPRPRPRPPCGPRP — higher, 0.4
- RRIRCRPPRLPRPRPRPCIPPRP — higher, -0.01
- RRIRFRPPRLPRPRPRPVLTPRP — within 0.2 log units, -0.213
- RRIRNRPPRLPRPRPRPYDQPRP — within 0.2 log units, -0.37
- RRIRYRPPRLPRPRPRPPNVPRP — higher, 0.0158
- RRIRLRPPRLPRPRPRPQGPPRP — within 0.2 log units, -0.191
- RRIRWRPPRLPRPRPRPCRMPRP — higher, -0.0166
- RRIRKRPPRLPRPRPRPDKFPRP — higher, 0.126
- RRIRLRPPRLPRPRPRPKADPRP — higher, -0.051
- RRIRHRPPRLPRPRPRPLWVPRP — within 0.2 log units, -0.142
- RRIRARPPRLPRPRPRPMHAPRP — higher, 0.409
- RRIRYRPPRLPRPRPRPYLGPRP — within 0.2 log units, -0.261
- RRIRERPPRLPRPRPRPAYLPRP — within 0.2 log units, -0.296
- RRIRERPPRLPRPRPRPAFRPRP — higher, -0.0607
- RRIRMRPPRLPRPRPRPAHAPRP — higher, 1.16
- RRIRHRPPRLPRPRPRPNPIPRP — higher, -0.023
- RRIRDRPPRLPRPRPRPFGRPRP — higher, -0.0125
- RRIRCRPPRLPRPRPRPDSIPRP — higher, -0.0365
- RRIRCRPPRLPRPRPRPTGWPRP — higher, 0.314
- RRIRDRPPRLPRPRPRPVNEPRP — higher, 0.0314
- RRIRDRPPRLPRPRPRPHLAPRP — higher, 0.302
- RRIRWRPPRLPRPRPRPHMNPRP — lower, -0.667
- RRIRVRPPRLPRPRPRPERMPRP — higher, -0.0652
- RRIRRRPPRLPRPRPRPRDIPRP — higher, 0.0666
- RRIRNRPPRLPRPRPRPPMAPRP — higher, 0.361
- RRIRGRPPRLPRPRPRPWDRPRP — within 0.2 log units, -0.141
- RRIRRRPPRLPRPRPRPKSDPRP — higher, 0.441
- RRIRFRPPRLPRPRPRPWLLPRP — within 0.2 log units, -0.343
- RRIRWRPPRLPRPRPRPIWEPRP — higher, 0.00194
- RRIRIRPPRLPRPRPRPAQCPRP — higher, 0.211
- RRIRWRPPRLPRPRPRPIKWPRP — within 0.2 log units, -0.18
- RRIRERPPRLPRPRPRPRYIPRP — within 0.2 log units, -0.208
- RRIRERPPRLPRPRPRPGLGPRP — higher, 0.602
- RRIRKRPPRLPRPRPRPLWMPRP — higher, -0.0285
- RRIRDRPPRLPRPRPRPGSQPRP — higher, 0.0966
- RRIRQRPPRLPRPRPRPSRKPRP — higher, 0.111
- RRIRCRPPRLPRPRPRPESGPRP — higher, 0.0145
- RRIRTRPPRLPRPRPRPEQGPRP — higher, 0.196
- RRIRKRPPRLPRPRPRPEMMPRP — higher, 0.113
- RRIRPRPPRLPRPRPRPISVPRP — within 0.2 log units, -0.171
- RRIRRRPPRLPRPRPRPQKHPRP — higher, 0.0365
- RRIRGRPPRLPRPRPRPEYIPRP — higher, 0.252
- RRIRWRPPRLPRPRPRPVNYPRP — within 0.2 log units, -0.122
- RRIRQRPPRLPRPRPRPTLRPRP — higher, -0.0246
- RRIRHRPPRLPRPRPRPQVKPRP — lower, -1.6
- RRIRDRPPRLPRPRPRPDPKPRP — higher, 0.189
- RRIRGRPPRLPRPRPRPKYTPRP — higher, 0.101
- RRIRQRPPRLPRPRPRPSDEPRP — within 0.2 log units, -0.275
- RRIRWRPPRLPRPRPRPCSRPRP — within 0.2 log units, -0.162
- RRIRARPPRLPRPRPRPQLHPRP — higher, 0.054
- RRIRKRPPRLPRPRPRPQSNPRP — higher, 0.0971
- RRIRTRPPRLPRPRPRPSMTPRP — within 0.2 log units, -0.401
- RRIRFRPPRLPRPRPRPWKKPRP — higher, -0.00973
- RRIRQRPPRLPRPRPRPPFRPRP — higher, 0.14
- RRIRARPPRLPRPRPRPGNGPRP — higher, 0.275
- RRIRKRPPRLPRPRPRPHCFPRP — higher, 0.0684
- RRIRTRPPRLPRPRPRPNTKPRP — within 0.2 log units, -0.337
- RRIRFRPPRLPRPRPRPEDVPRP — higher, -0.0294
- RRIRMRPPRLPRPRPRPLDFPRP — within 0.2 log units, -0.129
- RRIRYRPPRLPRPRPRPNNDPRP — lower, -1.14
- RRIRQRPPRLPRPRPRPILHPRP — lower, -1.25
- RRIRMRPPRLPRPRPRPIHCPRP — within 0.2 log units, -0.105
- RRIRLRPPRLPRPRPRPPQGPRP — higher, 1.27
- RRIRHRPPRLPRPRPRPGIRPRP — higher, -0.00441
- RRIRNRPPRLPRPRPRPEPSPRP — higher, 0.145
- RRIRARPPRLPRPRPRPPMVPRP — higher, 0.0322
- RRIRYRPPRLPRPRPRPFNRPRP — higher, -0.0175
- RRIRARPPRLPRPRPRPTILPRP — higher, 0.344
- RRIRMRPPRLPRPRPRPNHHPRP — lower, -0.592
- RRIRNRPPRLPRPRPRPYARPRP — higher, -0.0034
- RRIRIRPPRLPRPRPRPYFVPRP — lower, -0.612
- RRIRVRPPRLPRPRPRPHCQPRP — within 0.2 log units, -0.401
- RRIRARPPRLPRPRPRPETEPRP — higher, 1.39
- RRIRNRPPRLPRPRPRPLLIPRP — higher, 0.589
- RRIRNRPPRLPRPRPRPNHIPRP — lower, -0.733
- RRIRIRPPRLPRPRPRPIVKPRP — higher, -0.0118
- RRIRDRPPRLPRPRPRPMGIPRP — higher, 0.0303
- RRIRGRPPRLPRPRPRPWPVPRP — higher, 0.674
- RRIRVRPPRLPRPRPRPHHTPRP — lower, -0.731
- RRIRIRPPRLPRPRPRPGFRPRP — higher, 0.0935
- RRIRKRPPRLPRPRPRPPVEPRP — higher, 0.13
- RRIRYRPPRLPRPRPRPYCVPRP — lower, -1.71
- RRIRHRPPRLPRPRPRPMECPRP — within 0.2 log units, -0.427
- RRIRTRPPRLPRPRPRPPCLPRP — higher, -0.0659
- RRIRIRPPRLPRPRPRPIHDPRP — higher, 2.93
- RRIRCRPPRLPRPRPRPVIDPRP — higher, 0.136
- RRIRIRPPRLPRPRPRPCGVPRP — within 0.2 log units, -0.153
- RRIRPRPPRLPRPRPRPVYWPRP — within 0.2 log units, -0.139
- RRIRARPPRLPRPRPRPLPQPRP — higher, 0.64
- RRIRRRPPRLPRPRPRPPGDPRP — higher, 1.06
- RRIRLRPPRLPRPRPRPETGPRP — higher, -0.0316
- RRIRMRPPRLPRPRPRPWTEPRP — higher, 0.0475
- RRIRQRPPRLPRPRPRPGTLPRP — higher, -0.0134
- RRIRWRPPRLPRPRPRPDFKPRP — higher, -0.0843
- RRIRGRPPRLPRPRPRPGKSPRP — higher, 0.176
- RRIRDRPPRLPRPRPRPIKWPRP — within 0.2 log units, -0.147
- RRIRPRPPRLPRPRPRPWPAPRP — higher, 0.0589
- RRIRMRPPRLPRPRPRPEHDPRP — higher, 1.62
- RRIRERPPRLPRPRPRPWLDPRP — higher, 0.121
- RRIRPRPPRLPRPRPRPLHRPRP — within 0.2 log units, -0.284
- RRIRMRPPRLPRPRPRPHEWPRP — higher, 0.624
- RRIRKRPPRLPRPRPRPNHLPRP — higher, -0.0502
- RRIRPRPPRLPRPRPRPQFGPRP — higher, -0.0476
- RRIRPRPPRLPRPRPRPLMGPRP — higher, -0.0395
- RRIRCRPPRLPRPRPRPIHGPRP — within 0.2 log units, -0.33
- RRIRVRPPRLPRPRPRPLNAPRP — within 0.2 log units, -0.331
- RRIRRRPPRLPRPRPRPQDIPRP — lower, -1.16
- RRIRVRPPRLPRPRPRPKCQPRP — higher, 0.106
- RRIRIRPPRLPRPRPRPGPKPRP — higher, 0.00436
- RRIRLRPPRLPRPRPRPYEQPRP — within 0.2 log units, -0.104
- RRIRTRPPRLPRPRPRPVRLPRP — higher, -0.0555
- RRIRKRPPRLPRPRPRPLTYPRP — higher, 0.0522
- RRIRKRPPRLPRPRPRPECDPRP — higher, 3.35
- RRIRRRPPRLPRPRPRPWRFPRP — higher, 0.012
- RRIRFRPPRLPRPRPRPDPYPRP — within 0.2 log units, -0.437
- RRIRGRPPRLPRPRPRPKHFPRP — within 0.2 log units, -0.121
- RRIRKRPPRLPRPRPRPKQKPRP — higher, 0.054
- RRIRQRPPRLPRPRPRPIITPRP — lower, -1.01
- RRIRMRPPRLPRPRPRPCRMPRP — higher, -0.0205
- RRIRKRPPRLPRPRPRPLEVPRP — higher, 0.0569
- RRIRPRPPRLPRPRPRPYAQPRP — within 0.2 log units, -0.478
- RRIRIRPPRLPRPRPRPETPPRP — higher, 0.207
- RRIRRRPPRLPRPRPRPEPIPRP — higher, 0.378
- RRIRIRPPRLPRPRPRPIQIPRP — higher, -0.0257
- RRIRKRPPRLPRPRPRPSRTPRP — higher, 0.391
- RRIRVRPPRLPRPRPRPSAHPRP — higher, -0.0182
- RRIRYRPPRLPRPRPRPGARPRP — higher, -0.00825
- RRIRSRPPRLPRPRPRPRPPPRP — higher, 1.13
- RRIRSRPPRLPRPRPRPKFTPRP — within 0.2 log units, -0.436
- RRIRVRPPRLPRPRPRPCAQPRP — within 0.2 log units, -0.186
- RRIRQRPPRLPRPRPRPWHFPRP — higher, -0.0375
- RRIRKRPPRLPRPRPRPGHSPRP — higher, -0.0124
- RRIRWRPPRLPRPRPRPNDRPRP — higher, 0.174
- RRIRIRPPRLPRPRPRPIKGPRP — higher, -0.068
- RRIRFRPPRLPRPRPRPPPNPRP — higher, 1.33
- RRIRQRPPRLPRPRPRPIMKPRP — higher, -0.0798
- RRIRLRPPRLPRPRPRPHTNPRP — within 0.2 log units, -0.377
- RRIRRRPPRLPRPRPRPWYQPRP — lower, -3.03
- RRIRDRPPRLPRPRPRPKPAPRP — higher, 0.278
- RRIRHRPPRLPRPRPRPRWQPRP — higher, 0.176
